Laboratory results as given in patent US20220402980A1 (published 2022).
Read-outs that look alike come from different tables or passages of the source. Bridges are numbered along the chain shown (N, C = ends). Where no end group is shown, it is not given here. [ ]: non-standard residue; d: D form. maleimide‑NOTA = 1,4,7-triazacyclononane-1,4-bis-acetic acid-7-maleimidoethylacetamide; Lys(N3) = [N-]=[N+]=NCCCC[C@H](N)C(=O)O; Pra = C#CC[C@H](N)C(=O)O

T1: recombinant human αvβ6 extracellular domain (R&D Systems) (human, UniProt P06756 31-992; P18564 22-709)
T1 chain 1: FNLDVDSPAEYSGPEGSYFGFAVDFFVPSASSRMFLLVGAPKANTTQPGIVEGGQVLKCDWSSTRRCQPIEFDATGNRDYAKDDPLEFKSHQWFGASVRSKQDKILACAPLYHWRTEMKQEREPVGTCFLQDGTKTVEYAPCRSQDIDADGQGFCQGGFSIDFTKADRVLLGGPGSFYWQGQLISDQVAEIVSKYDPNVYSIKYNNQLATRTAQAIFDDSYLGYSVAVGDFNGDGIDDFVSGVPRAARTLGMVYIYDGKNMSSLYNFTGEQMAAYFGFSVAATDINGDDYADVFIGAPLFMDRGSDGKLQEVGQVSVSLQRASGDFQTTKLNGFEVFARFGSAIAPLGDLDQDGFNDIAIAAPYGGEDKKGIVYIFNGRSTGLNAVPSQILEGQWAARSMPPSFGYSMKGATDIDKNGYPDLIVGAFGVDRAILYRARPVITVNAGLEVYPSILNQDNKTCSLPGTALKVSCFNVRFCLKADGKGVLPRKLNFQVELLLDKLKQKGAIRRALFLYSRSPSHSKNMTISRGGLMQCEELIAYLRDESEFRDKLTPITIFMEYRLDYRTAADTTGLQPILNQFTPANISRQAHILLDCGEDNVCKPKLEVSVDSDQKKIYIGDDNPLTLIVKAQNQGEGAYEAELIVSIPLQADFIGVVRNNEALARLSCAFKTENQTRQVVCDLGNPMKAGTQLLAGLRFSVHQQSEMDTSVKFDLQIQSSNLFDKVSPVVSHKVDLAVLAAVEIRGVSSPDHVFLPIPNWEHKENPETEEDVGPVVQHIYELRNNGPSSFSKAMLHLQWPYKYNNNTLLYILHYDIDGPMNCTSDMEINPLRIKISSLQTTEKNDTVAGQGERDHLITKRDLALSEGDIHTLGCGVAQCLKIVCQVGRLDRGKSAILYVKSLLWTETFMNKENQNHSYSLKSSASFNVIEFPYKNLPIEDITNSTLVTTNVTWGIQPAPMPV
T1 chain 2: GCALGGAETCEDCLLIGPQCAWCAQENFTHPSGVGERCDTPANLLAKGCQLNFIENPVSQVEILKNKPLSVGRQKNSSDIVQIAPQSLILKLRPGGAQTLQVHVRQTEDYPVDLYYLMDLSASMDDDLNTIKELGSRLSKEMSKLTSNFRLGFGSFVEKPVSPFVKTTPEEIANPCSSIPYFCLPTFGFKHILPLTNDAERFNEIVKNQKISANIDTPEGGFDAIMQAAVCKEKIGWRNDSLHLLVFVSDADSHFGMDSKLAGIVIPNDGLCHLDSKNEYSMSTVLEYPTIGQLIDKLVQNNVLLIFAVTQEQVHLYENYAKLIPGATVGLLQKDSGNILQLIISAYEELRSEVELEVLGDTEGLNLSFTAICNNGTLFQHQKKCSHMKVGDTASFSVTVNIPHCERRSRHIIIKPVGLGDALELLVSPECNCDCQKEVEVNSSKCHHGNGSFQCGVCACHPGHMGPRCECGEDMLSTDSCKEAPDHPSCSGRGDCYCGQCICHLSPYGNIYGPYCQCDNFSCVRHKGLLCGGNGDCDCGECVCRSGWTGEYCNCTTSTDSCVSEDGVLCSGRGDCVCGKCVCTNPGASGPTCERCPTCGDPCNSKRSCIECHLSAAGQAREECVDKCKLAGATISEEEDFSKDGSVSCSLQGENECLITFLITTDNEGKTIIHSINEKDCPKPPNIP

T2: αvβ8 integrin (purified, coated on microtiter plates) (UniProt P06756 31-992; P26012 43-684)
T2 chain 1: T1 chain 1
T2 chain 2: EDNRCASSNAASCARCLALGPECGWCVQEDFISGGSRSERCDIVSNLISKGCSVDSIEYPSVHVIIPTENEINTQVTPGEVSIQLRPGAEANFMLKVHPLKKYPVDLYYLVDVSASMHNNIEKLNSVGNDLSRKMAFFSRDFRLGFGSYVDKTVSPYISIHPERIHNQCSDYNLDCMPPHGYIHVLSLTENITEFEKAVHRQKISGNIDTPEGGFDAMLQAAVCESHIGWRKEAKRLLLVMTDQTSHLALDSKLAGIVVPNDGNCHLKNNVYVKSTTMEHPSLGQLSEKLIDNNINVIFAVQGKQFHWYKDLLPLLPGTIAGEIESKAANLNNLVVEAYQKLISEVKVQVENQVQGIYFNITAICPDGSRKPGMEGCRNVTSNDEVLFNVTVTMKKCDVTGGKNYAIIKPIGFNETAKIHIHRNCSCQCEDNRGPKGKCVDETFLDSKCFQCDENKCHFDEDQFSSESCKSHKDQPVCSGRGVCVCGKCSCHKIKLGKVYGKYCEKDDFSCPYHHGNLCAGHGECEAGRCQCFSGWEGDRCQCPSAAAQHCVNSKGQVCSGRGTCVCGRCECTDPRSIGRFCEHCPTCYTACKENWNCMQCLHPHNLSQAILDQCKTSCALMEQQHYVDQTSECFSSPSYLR

T3: cell-surface expressed αvβ6 on human cells (5637 bladder cancer cells, HaCaT keratinocytes, BxPC-3 pancreatic … (human, UniProt P06756 31-1048; P18564 22-788)
T3 chain 1: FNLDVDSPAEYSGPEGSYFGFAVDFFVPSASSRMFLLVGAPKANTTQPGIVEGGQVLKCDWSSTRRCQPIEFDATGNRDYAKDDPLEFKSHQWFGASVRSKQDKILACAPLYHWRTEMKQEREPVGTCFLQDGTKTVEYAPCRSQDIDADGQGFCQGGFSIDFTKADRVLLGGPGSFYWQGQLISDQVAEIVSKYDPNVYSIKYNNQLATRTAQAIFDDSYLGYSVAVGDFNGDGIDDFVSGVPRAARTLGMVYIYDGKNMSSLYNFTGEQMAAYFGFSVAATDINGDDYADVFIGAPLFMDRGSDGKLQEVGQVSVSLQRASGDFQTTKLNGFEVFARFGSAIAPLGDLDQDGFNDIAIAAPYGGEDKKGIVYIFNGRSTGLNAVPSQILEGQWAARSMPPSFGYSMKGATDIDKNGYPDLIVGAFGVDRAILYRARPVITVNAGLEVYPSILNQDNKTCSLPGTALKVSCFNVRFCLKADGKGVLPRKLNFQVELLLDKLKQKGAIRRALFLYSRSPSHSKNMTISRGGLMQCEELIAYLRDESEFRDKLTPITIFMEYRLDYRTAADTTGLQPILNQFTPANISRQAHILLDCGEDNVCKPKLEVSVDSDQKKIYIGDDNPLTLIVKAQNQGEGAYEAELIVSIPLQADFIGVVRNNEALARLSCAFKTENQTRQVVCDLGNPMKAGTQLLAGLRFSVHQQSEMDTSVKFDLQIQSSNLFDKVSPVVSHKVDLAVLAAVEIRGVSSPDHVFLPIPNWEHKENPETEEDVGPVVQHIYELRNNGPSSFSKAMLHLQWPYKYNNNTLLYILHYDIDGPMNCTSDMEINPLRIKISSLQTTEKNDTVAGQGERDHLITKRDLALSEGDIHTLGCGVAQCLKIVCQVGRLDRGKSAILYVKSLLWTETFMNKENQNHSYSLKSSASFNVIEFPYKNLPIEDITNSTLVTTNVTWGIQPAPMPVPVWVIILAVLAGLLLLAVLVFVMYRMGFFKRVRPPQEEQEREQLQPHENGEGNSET
T3 chain 2: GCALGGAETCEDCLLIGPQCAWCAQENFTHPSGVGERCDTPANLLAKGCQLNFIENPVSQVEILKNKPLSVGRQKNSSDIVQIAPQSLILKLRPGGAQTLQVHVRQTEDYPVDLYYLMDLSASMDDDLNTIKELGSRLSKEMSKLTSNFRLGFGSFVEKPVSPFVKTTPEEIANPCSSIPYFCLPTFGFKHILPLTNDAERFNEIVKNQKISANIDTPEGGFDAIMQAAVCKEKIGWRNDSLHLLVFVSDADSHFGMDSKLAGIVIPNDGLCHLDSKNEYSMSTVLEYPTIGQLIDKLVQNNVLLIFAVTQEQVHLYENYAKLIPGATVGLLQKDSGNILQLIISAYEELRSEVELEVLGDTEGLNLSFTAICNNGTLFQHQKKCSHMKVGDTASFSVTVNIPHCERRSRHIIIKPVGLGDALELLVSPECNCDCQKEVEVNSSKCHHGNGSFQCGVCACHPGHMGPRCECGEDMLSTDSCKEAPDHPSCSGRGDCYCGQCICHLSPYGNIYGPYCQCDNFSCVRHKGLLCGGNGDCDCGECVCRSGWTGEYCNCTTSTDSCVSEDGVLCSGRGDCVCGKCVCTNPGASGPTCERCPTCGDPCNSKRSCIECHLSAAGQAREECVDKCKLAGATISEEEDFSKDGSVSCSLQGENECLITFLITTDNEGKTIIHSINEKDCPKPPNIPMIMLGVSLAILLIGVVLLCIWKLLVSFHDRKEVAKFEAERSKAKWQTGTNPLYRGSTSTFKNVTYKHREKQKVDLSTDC


Legend:
[1] = target: T1, recombinant human αvβ6 extracellular …
[2] = target: T1, recombinant human αvβ6 extracellular …
[3] = target: T2, αvβ8 integrin (purified, coated on …)
[4] = target: T1, recombinant human αvβ6 extracellular …
[5] = target: T3, cell-surface expressed αvβ6 on human …; assay: FACS
[6] = target: T3, cell-surface expressed αvβ6 on human …; assay: FACS

Binder | Ki [4] [nM] | IC50 [6] [nM] | also measured
CFETLRGEERILSILRHQNLLKELQD [peptide 2a] | – | – | Ki [1]: > 100 nM
C(IRDye 800CW maleimide)FETLRGDLRILSILR[Pra]QNL[Lys(N3)]KELQD-NH2 (triazole 17-21) [5a-IRDye (peptide 5a coupled via Cys to maleimide-IRDye 800CW)] | – | – | EC50 [2]: 2.8 nM; EC50 [3]: 1.9 nM
Ac-FETLRGDLRILSILR[Pra]QNL[Lys(N3)]KELQD-NH2 (triazole 16-20) [peptide 5 (triazole-stapled CgA39-63-derived peptide)] | 0.93 | 3.6 | Ki [1]: 0.84 nM; IC50 [5]: 25 nM
C(maleimide‑NOTA)FETLRGDLRILSILR[Pra]QNL[Lys(N3)]KELQD-NH2 (triazole 17-21) [NOTA-5a (peptide 5a coupled to maleimide-NOTA)] | 2.31 | – | –
C(maleimide‑NOTA)FETLRGEERILSILRHQNLLKELQD [NOTA-2a (peptide 2a coupled to maleimide-NOTA)] | > 1000 | – | –
CFETLRGDLRILSILR[Pra]QNL[Lys(N3)]KELQD-NH2 (triazole 17-21) [peptide 5a] | 1.71 | – | –
FETLRGDERILSILRHQNLLKELQD [peptide 1 (CgA-derived peptide, residues 39-63), synthetic] | – | 640 | –
FETLRGDLRILSILRHQNLLKELQD [peptide 4] | – | 16.9 | IC50 [5]: 80 nM
